Measured values published in patent US20250051409A1, “MODULATORS OF PHOSPHATIDYLSERlNE DECARBOXYLASE AND USE THEREOF” (THE NATIONAL INSTITUTE FOR BIOTECHNOLOGY IN THE NEGEV LTD., priority 2021, published 2025).

Assays:
[1] = target: T1, phosphatidylserine decarboxylase (PSD) (Homo sapiens, UniProt Q9UG56); assay: MST interaction of purified SMAC with purified PSD; format: binding; details: SMAC 1 μM, PSD 78-625 nM, 30 min at 37° C., read-out: dissociation constant (Kd) of PSD interaction with SMAC
T1 construct: Purified recombinant protein (full length) of human phosphatidylserine decarboxylase (PSD); His tag (N); purchased Acris-OriGene; host or cells: E. coli
T1 sequence (Q9UG56 53-409): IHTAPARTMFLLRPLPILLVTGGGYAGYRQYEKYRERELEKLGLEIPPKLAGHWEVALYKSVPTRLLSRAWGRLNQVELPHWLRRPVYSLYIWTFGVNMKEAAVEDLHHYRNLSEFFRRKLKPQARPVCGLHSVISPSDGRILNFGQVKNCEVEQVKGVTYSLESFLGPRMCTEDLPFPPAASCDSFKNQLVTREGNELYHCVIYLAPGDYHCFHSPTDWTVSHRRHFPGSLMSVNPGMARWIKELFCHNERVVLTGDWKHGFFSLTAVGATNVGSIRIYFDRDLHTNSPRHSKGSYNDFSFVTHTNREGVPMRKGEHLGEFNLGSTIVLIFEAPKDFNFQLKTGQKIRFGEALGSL
Description: (A) Representative IF images for SMAC and PSD colocalization in A549 cells. Scale bars represent 10, 2.5 μm, as indicated. (B) PLA assay showing direct interaction between SMAC and PSD in A549 cells (scale bar represent 10 μm). Immunoblot (C) and quantitative analysis cells (D) of PSD and SMAC expression levels relative to WI-38 (n=3). PSD activity (n=6) (E) and PE levels (n=6) (F) were analyzed in the indicated cell lines. (G) Purified PSD and SMAC used in this study. (H) PSD interaction with SMAC analyzed using the MST method (n=4). Purified SMAC was fluorescently labelled with the NanoTemper BLUE protein-labelling kit. SMAC (1 μM) was incubated with purified PISD (78-625 nM) for 30 min at 37° C., then thermophoresis was measured as described in the Materials and Methods section hereinbelow. […] (I) Inhibition of PSD activity by SMAC, as measured using the DSB-3 method (n=4). Results are the mean±SEM. *P≤0.05; **P≤0.01; ***P≤0.001; NS, nonsignificant.
(§1) Human recombinant SMAC (10339-H08E) was produced by Sino Biologicals (Wayne, PA, USA). […]
MST analysis was performed using a NanoTemper Monolith NT.115 apparatus as described earlier (Wienken C J, et al., 2010. Nat Commun 1, 100). […] After a 30-min incubation, 8 μl of the samples were loaded into a glass capillary (Monolith NT Capillaries), and thermophoresis was analyzed (LED 20%, IR laser 20%).

[2] = target: T1, phosphatidylserine decarboxylase (PSD); assay: PSD activity inhibition, DSB-3 method; format: biochemical; details: read-out: IC50 of SMAC inhibiting PSD activity
Description: PE content in the lipid samples was measured as described previously (Choi J Y, et al. 2018. J Biol Chem 293, 1493-1503). Briefly, solvent was evaporated from the lipid samples under nitrogen gas, and samples were re-suspended in 0.8 mM Triton X-100. Sample aliquots were added to 96-well plates containing (50 μl) reaction mixture (80 mM NaCl, 2 mM K2HPO4, pH 7.4), and borate buffer (12.5 μl) (100 mM boric acid, 75 mM NaCl, 25 mM sodium tetraborate, pH 9). After mixing, 12.5 μl of 100 μM DSB-3, in 10 mM K2HPO4 (pH 7.4), were added and incubated for 2 h in the dark with shaking (100 rpm). Fluorescence was measured using excitation λex=403 nm and emission λem=508 nm. A calibration curve was obtained using PE (Biovision, CA) as a standard.
To determine PSD activity, purified enzyme (0.2-0.4 μM) or crude cell lysate (0.25-0.5 μg of protein) was incubated with PS (50 μM) for 45 min at 30° C. in the dark with shaking under the conditions described above for PE determination. PSD activity was measured by determining the PE produced as described above, except that the signal obtained in the absence of substrate PS (representing endogenous PE) was subtracted from the signal obtained in the presence of PS.
as §1

B1: SMAC: Human recombinant SMAC (10339-H08E) produced by Sino Biologicals (protein)
chain: AVPIAQKSEPHSLSSEALMRRAVSLVTDSTSTFLSQTTYALIEAITEYTKAVYTLTSLYRQYTSLLGKMNSEEEDEVWQVIIGARAEMTSKHQEYLKLETTWMTAVGLSEMAAEAAYQTGADQASITARNHIQLVKLQVEEVHQLSRKAETKLAEAQIEELRQKTQEEGEERAESEQEAYLRED
Kd [1]: 246 nM
IC50 [2]: 400 nM
